Laboratory results: patent publication US7947279B2, “Peptide having hydrolase activity” (The Trustees of Columbia University in the City of New York, priority 2005, dated 2011)
Entries after “also recorded” stand apart in the source; their conditions may differ.

Key:
[1] = test system: SY5Y neuroblastoma cells transfected with a degron CL1-GFP expression vector; assay: Proteasome reporter assay (GFP^u); format: cell-based, human; conditions: fusion protein 20 nM with Aβ
Procedure, shortened: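 SH-SY5Y neuroblastoma cells stably expressing GFP fused to CL1 degron (GFP^u) in DMEM with 15% FBS. After treatment, GFP^u levels quantified by densitometry of anti-GFP immunoblots of total extracts (10 ug/lane), normalized to ERK.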

[2] = Native gel dimer formation; format: physicochemical
[3] = test system: BST at the Schaffer collateral/CA1 connection of hippocampal slices; assay: Basal synaptic transmission (BST) in hippocampal slices; format: cell-based, mouse; conditions: for BST in WT slices (words): fusion protein 20 nM 1 hr or Aβ 200 nM 20 min, alone
mice (WT and APP/PS1) = assay: Contextual and cued fear conditioning; format: in vivo, mouse; conditions: for contextual freezing of APP/PS1 mice 1 day after training: 0.02-0.04 g/kg i.p. 4 hrs before training, 3-5 month-old
Procedure: Behavioral Studies: Fear conditioning was performed in a conditioning chamber as previously described (Bourtchuladze et al., 1994; Gong et al., 2004). For contextual and cued fear conditioning mice were placed in the conditioning chamber for 2 min before the onset of a discrete tone (CS) (a 30 sec sound at 2800 Hz and 85 dB). In the last 2 sec of the CS, mice were given a foot shock (US) of 0.50 mA for 2 sec through the bars of the floor. After the CS/US pairing, the mice were left in the conditioning chamber for another 30 sec and then placed back in their home cages. Freezing behavior, defined as the absence of all movement except for that necessitated by breathing, was scored using Freezeview software. To evaluate contextual fear learning, freezing was measured for 5 min in the chamber in which the mice were trained 24 hrs after training. To evaluate cued fear conditioning, following contextual testing, the mice were placed in a novel context (triangular cage with smooth flat floor and with vanilla odorant) for 2 min (pre-CS test), after which they were exposed to the CS for 3 min (CS test), and freezing was measured. To evaluate the contextual fear over time, mice were placed for 5 min in the chamber in which the mice were trained 7- 14- 21-days after training. Sensory perception of the shock was determined through threshold assessment. Each animal was placed individually into the conditioning chamber. […] Animal behavior was evaluated for the first visible response to the shock (flinch), the first extreme motor response (run/jump), and the first vocalized distress (scream). Threshold to flinching, jumping, and screaming was quantified for each animal by averaging of the shock intensity at which each animal manifested a behavioral response of that type to the foot shock. Visual, motor, and motivation skills were also tested with visible platform training by measuring the time and the speed to reach a visible platform placed within a pool filled with water (Gong et al., 2004). Both time to reach the platform and swimming speed were recorded and analyzed with a video tracking system (HVS-2020, HVS Image, UK). No difference was observed among different groups of mice in the experiments in which fear conditioning was tested both in the presence of LDN and TAT fusion proteins. To decide the time of administration of LDN, experiments were performed in which the inhibitor was injected intra-peritoneally at different intervals (4 hrs before, 1 hr before, 1 hr after and 4 hrs after) from the electric shock. During the training phase, no difference was found in the freezing of LDN- or vehicle-injected mice.

[4] = test system: CA1-LTP in hippocampal slices; assay: CA1-LTP in hippocampal slices (theta-burst); format: cell-based, mouse; conditions: for Aβ-induced impairment of CA1-LTP (words): fusion protein 20 nM 1 hr, then plus Aβ 200 nM 20 min; for LTP in slices not treated with Aβ (words): fusion protein 20 nM, 3 theta-burst trains
phospho-CREB at Ser-133 = assay: Phospho-CREB (Ser-133) Western blot in hippocampal cultures; format: cell-based, rat
Procedure, shortened: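 Rat E18 hippocampal neurons cultured serum-free to 5 DIV, lysed in RIPA (pH 7.4, with phosphatase and protease inhibitors). Lysates resolved by SDS-PAGE and immunoblotted with anti-pCREB, HRP detection; band intensities quantified by densitometry and normalized to total ERK1/2.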

[5] = listed as TAT-HA-Uch-L1 peptide
[6] = 12-18 month APP/PS1 slices, 20 nM 1 hr
[7] = listed as Uch-L1 fusion protein
[8] = 20 nM, 1 hr, listed as TAT-Uch-L1 fusion protein

B1: TAT-HA-Uch-L1: fusion protein: 11-amino acid transduction domain of HIV-transactivator protein (TAT) fused with an HA tag and human Uch-L1 (protein)
chain: MQLKPMEINPEMLNKVLSRLGVAGQWRFVDVLGLEEESLGSVPAPACALLLLFPLTAQHENFRKKQIEELKGQEVSPKVYFMKQTIGNSCGTIGLIHAVANNQDKLGFEDGSVLKQFLSETEKMSPEDRAKCFEKNEAIQAAHDAVAQEGQCRVDDKVNFHFILFNNVDGHLYELDGRMPFPVNHGASSEDTLLKDAAKVCREFTEREQGEVRFSAVALCKAA
modifications: left off: small tags and cut ends
[1]
  Aβ-induced increase of GFP^u: reversed
[1]; [5]
  Aβ-induced increase of GFP^u: blocked the increase of GFP^u
[2]; 1 μM
  dimer formation: no dimer formation was detected; also recorded: No dimers were detected
[2]; 5 μM
  dimer formation: Dimers were seen at 5 μM; also recorded: A weak band corresponding to dimers and other oligomeric species was detected
[3]; 20 nM, 1 hr
  BST in slices from 12-18 month-old APP/PS1 mice: also improved; also recorded: improved BST
[3]; [6]
  BST: about 94 % that of TAT-HA-treated WT mice
[3]
  BST in WT slices (words): did not reveal any significant difference among treatments; also recorded: does not affect CA1-BST
[3]; [7]
  BST in WT slices (words): does not affect
Mice (WT and APP/PS1)
  contextual freezing of APP/PS1 mice 1 day after training: failed to re-establish normal freezing; also recorded: does not improve learning the day after training
Mice (WT and APP/PS1); listed as TA-HA-Uch-L1
  contextual freezing of APP/PS1 mice 1 day after training: failed to re-establish normal freezing
Mice (WT and APP/PS1); 0.02-0.04 g/kg i.p., listed as TA-HA-Uch-L1
  freezing responses of WT mice: had no effect
Mice (WT and APP/PS1); 0.02-0.04 g/kg, i.p.
  freezing responses of WT mice: did not change the freezing time; also recorded: had no effect
Mice (WT and APP/PS1); single injection 0.02-0.04 g/kg i.p. 4 hrs prior to training
  contextual freezing of APP/PS1 mice at 7, 14 and 21 days after training: greatly increased the freezing time; also recorded: improves the retention of contextual fear conditioning; also recorded: re-established normal freezing time
[4]; 20 nM, 1 hr
  LTP in slices from 4 month-old APP/PS1 mice: far greater potentiation; also recorded: elevated above vehicle treated slices; also recorded: completely reversed
  LTP in slices from 4 month-old WT mice: did not change the amplitude of LTP; also recorded: had no effect on LTP amplitude
  LTP in slices from 12-18 month-old APP/PS1 mice: greater potentiation; also recorded: had a beneficial effect; also recorded: reversed the impairment of LTP
  LTP in slices from 12-18 month-old WT mice: did not change the amplitude of LTP; also recorded: did not vary the amounts of potentiation; also recorded: did not affect LTP
[4]; [8]
  LTP in slices from 12-18 month-old APP/PS1 mice: reverses the decrease of LTP
  LTP in slices from 12-18 month-old WT mice: does not affect LTP
[4]; 4 month APP/PS1 slices, 20 nM 1 hr
  Levels of LTP at 120 minutes after tetanus: about 94 % those of TAT-HA-treated WT littermates
[4]; 4 month WT slices, 20 nM 1 hr
  Levels of LTP at 120 minutes after tetanus: about 98 % those of vehicle-treated WT slices
[4]; [6]
  levels of LTP: about 82 % that of TAT-HA-treated WT littermates
[4]; 12-18 month WT slices, 20 nM 1 hr
  Levels of LTP at 120 minutes after tetanus: 98.5 % of those of TAT-HA-treated WT slices
[4]; 1 hr pre-treatment, then Aβ 200 nM 20 min, as low as 5 nM
  rescue of LTP at different concentrations, S18Y versus TAT-HA-Uch-L1 (words): No difference was detected; also recorded: no difference between the two forms
[4]; WT slices, 1 theta-burst train instead of 3
  LTP induced by weak tetanus: enhanced LTP; also recorded: increases LTP
[4]
  Aβ-induced impairment of CA1-LTP (words): protected against LTP suppression; also recorded: completely reversed
[4]; [5]
  Aβ-induced impairment of CA1-LTP (words): protected against LTP suppression
[4]; listed as TAT-Uch-L1 fusion protein
  Aβ-induced impairment of CA1-LTP (words): reversed; also recorded: rescued
[4]; [7]
  Aβ-induced impairment of CA1-LTP (words): reverses the deficits of LTP
[4]; 1 hr, WT slices
  LTP in slices not treated with Aβ (words): did not change the amplitude of LTP; also recorded: had no effect on LTP; also recorded: did not affect the amounts of potentiation; also recorded: did not affect LTP
[4]; 1 hr, WT slices, listed as Uch-L1 fusion protein
  LTP in slices not treated with Aβ (words): does not affect
[4]; non-tetanized slices
  baseline transmission in slices without tetanic stimulation: did not modify the baseline; also recorded: had no effect on basal synaptic responses; also recorded: did not affect baseline transmission; also recorded: did not affect basal transmission; also recorded: Neither TAT-HA-Uch-L1 nor TAT-HA-iUch-L1 affected baseline transmission
phospho-CREB at Ser-133; fusion protein 100 nM, 3 μM Aβ 24 hrs, 50 μM glutamate 15 min
  effect of Aβ on glutamate-induced CREB phosphorylation (words): totally blocked the effect of Aβ on CREB phosphorylation; also recorded: re-established; also recorded: completely opposed
phospho-CREB at Ser-133; fusion protein alone, no glutamate
  levels of phospho-CREB: did not affect levels of phospho-CREB
